Laboratory results reported in paper PMC8538406.

Target: CCR7-FKBP (DmrA) receptor chimaera, CCR7-M

Matrigel transwell invasion of co-transfected MDA-MB-231 cells with ACH (AP21967), towards CCL19 and CXCL12 together: > 50%
Substance: CXCR4-FRB (DmrC) receptor chimaera, CXCR4-H
